Test results from PMC9856783, “Identification and Characterization of Aptamers Targeting Ovarian Cancer Biomarker Human Epididymis Protein 4 for the Application in Urine”.

T1: Human epididymis protein 4 (HE4) (human, UniProt Q14508 31-124)
T1 sequence: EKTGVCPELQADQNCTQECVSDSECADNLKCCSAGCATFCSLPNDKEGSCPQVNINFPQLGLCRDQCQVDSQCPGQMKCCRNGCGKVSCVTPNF


Assays:
[1] = biological target: T1, Human epididymis protein 4 (HE4); assay: thermofluorimetric analysis (SYBR Gold); preliminary data, urine; 100 nM DNA, 0-800 nM HE4, 1/125 diluted artificial urine, 1x SYBR Gold, protein buffer (10.1 mM Na2HPO4, 137 mM NaCl, 2.7 mM KCl, 1.8 mM KH2PO4, 1 mM MgCl2); pH; conditions: protein: commercial; tags: 6xHis; label: SYBR Gold dye (non-covalent)
[2] = biological target: T1, Human epididymis protein 4 (HE4); assay: thermofluorimetric analysis (SYBR Gold); 1/125 artificial urine; HE4 up to 800 nM; 100 nM DNA, 0-800 nM HE4, 1/125 diluted artificial urine, 1x SYBR Gold, protein buffer (10.1 mM Na2HPO4, 137 mM NaCl, 2.7 mM KCl, 1.8 mM KH2PO4, 1 mM MgCl2); pH; conditions: protein: commercial; tags: 6xHis; label: SYBR Gold dye (non-covalent)

Row | Binder | binding result [1] | binding result [2]
1 | AHE2 (ssDNA) DNA: TCGCACATTCCGCTTCTACCGCCAACATCGTACTCCATCTGCCACCCCCACGTAAGTCCGTGTGTGCGAA | no binding | 
2 | Scramble aptamer DNA (ssDNA) DNA: ATCGCGTCCGTCAATTACCTACGCTGCACCACTTATGAGCCGGTATCGCCATCCGTCAACTCACGCCTCC |  | no binding
